In the Immune Epitope Database (IEDB) one finds Kd data, which are given here for 14 sequences.

The target of assay [1] is HLA-B*40:01. In words: IEDB peptide-MHC binding, purified MHC/competitive/radioactivity; filed as Kd, often an IC50 or EC50 that approximates it; ≥ and ≤ were set here for values at or beyond the usual limits of such assays.
Assay [2] has as its target HLA-A*26:01. The assay is described as above.
Assay [3] deals with HLA-A*30:02. Described as above.
In assay [4] the target is HLA-A*24:02. The assay is described as above.
In assay [5] the target is HLA-A*01:01. The description is as above.
Assay [6] deals with HLA-A*29:02. Described as above.
The target in assay [7] is HLA-A*23:01. Described as above.
Assay [8] deals with HLA-A*26:01. In words: IEDB peptide-MHC binding, purified MHC/direct/fluorescence; filed as Kd, often an IC50 or EC50 that approximates it; ≥ and ≤ were set here for values at or beyond the usual limits of such assays.
Assay [9] has as its target HLA-A*69:01. The assay is described as above.
Assay [10] has as its target HLA-A*03:01. The assay is described as above.
The target in assay [11] is HLA-B*15:01. The description is as above.
Assay [12] concerns the target HLA-B*27:05. Described as above.
Assay [13] addresses HLA-A*31:01. Described as above.
The target in assay [14] is HLA-B*08:01. Described as above.
In assay [15] the target is HLA-A*02:01. Described as above.
Assay [16] addresses HLA-A*01:01. The assay is described as above. Particulars: source organism: Comamonas sediminis.
Assay [17] addresses HLA-A*11:01. The assay is described as above.
Assay [18] deals with HLA-B*40:01. Described as above.
Assay [19] addresses HLA-B*07:02. The assay is described as above.
The target of assay [20] is HLA-B*58:01. Described as above.
The target in assay [21] is HLA-B*15:17. In words: IEDB peptide-MHC binding, purified MHC/competitive/fluorescence; filed as Kd, often an IC50 or EC50 that approximates it; ≥ and ≤ were set here for values at or beyond the usual limits of such assays.
Setting [22] is: source organism: Dengue virus 2 Jamaica/1409/1983.
Where [23] appears, read: source organism: SARS coronavirus Tor2.
The mark [24] stands for this setting: source organism: Comamonas sediminis.
[25] abbreviates: source organism: Corynebacterium efficiens.
The mark [26] stands for this setting: source organism: Corynebacterium glutamicum.
[27] abbreviates: source organism: Dengue virus 1 Brazil/97-11/1997.
Setting [28] is: source organism: Mammarenavirus lassaense.

Usually Kd stands for the equilibrium constant for the complex coming apart. In the case of TEHGTTATI, in assay [1] (source organism: Dengue virus 1 Nauru/West Pac/1974), the Kd turned out to be 0.0571 µM.
TEIQMSSGNL: the Kd in assay [1] (setting [22]) turned out to be 0.00703 µM.
As for TSTGNYNYKY, the Kd was 1.26 µM in assay [2] (setting [23]); 0.0423 µM in assay [3] (setting [23]); at least 70.3 µM in assay [4] (setting [23]); 0.0965 µM in assay [5] (setting [23]); 0.294 µM in [6] (setting [23]); at least 70 µM in [7] (setting [23]).
Take KSLGIDQIW: the equilibrium dissociation constant (Kd) in assay [8] (setting [24]) was at least 20 µM; in [9] (setting [24]), at least 20 µM; in assay [10] (setting [24]), at least 20 µM; in assay [11] (setting [24]), 1.77 µM; in [12] (setting [24]), at least 20 µM; in assay [13] (setting [24]), 4.66 µM. Moreover, the Kd in assay [14] (setting [24]), in assay [15] (setting [24]), in assay [16], in assay [17] (setting [24]), in assay [18] (setting [24]) and in assay [19] (setting [24]) was at least 20 µM each time. For the same sequence, the Kd in assay [20] (setting [24]) worked out at 0.00829 µM; in assay [21] (setting [24]) it was 0.00135 µM.
As for KTSVDCNMY, the Kd was at least 81.5 µM in [2] (setting [23]); 0.00266 µM in assay [3] (setting [23]); at least 77.6 µM in assay [4] (setting [23]); 0.0986 µM in assay [5] (setting [23]); 2.72 µM in assay [6] (setting [23]); at least 77.8 µM in assay [7] (setting [23]).
Consider LTGHMLDMY, for which the Kd in [2] (setting [23]) was 10.5 µM; in [3] (setting [23]), 0.0728 µM; in assay [4] (setting [23]), at least 77.6 µM; in assay [5] (setting [23]) it was 0.000563 µM; in assay [6] (setting [23]), 0.0611 µM; in [7] (setting [23]), at least 77.8 µM.
Take ITWETPMIW: the Kd in assay [8] (setting [25]) is at least 20 µM; in assay [9] (setting [26]) it was 0.507 µM; in [10] (setting [25]), at least 20 µM; in assay [11] (setting [25]) it was at least 20 µM; in assay [12] (setting [25]) it was at least 20 µM; in [13] (setting [25]), at least 20 µM. Besides, the dissociation constant Kd in [14] (setting [25]) was at least 20 µM; in assay [15] (setting [25]) it was at least 20 µM; in [17] (setting [25]), at least 20 µM; in assay [18] (setting [25]), at least 20 µM; in assay [19] (setting [25]), at least 20 µM; in assay [20] (setting [26]) it was 0.00443 µM. In assay [21] (setting [26]), this sequence came in with a Kd of at most 0.001 µM.
Turning to VEEQDANFV, in assay [1] (setting [27]), the Kd was found to be 0.412 µM.
With KEEESEGAI, the Kd in [1] (source organism: Dengue virus 3 Martinique/1243/1999) came to 0.0464 µM.
Consider LFTKFFYLL, for which the Kd is at least 38.1 µM in assay [2] (setting [23]); at least 83.3 µM in assay [3] (setting [23]); 0.11 µM in [4] (setting [23]); at least 78.1 µM in [5] (setting [23]); 6.96 µM in assay [6] (setting [23]); 0.154 µM in assay [7] (setting [23]).
For the sequence HDLMMGYAWI, the Kd was at least 69.7 µM in assay [2] (setting [28]); 19.2 µM in [3] (setting [28]); at least 40.1 µM in [4] (setting [28]); at least 51 µM in [5] (setting [28]); at least 63.9 µM in [6] (setting [28]); 8.22 µM in [7] (setting [28]).
Regarding TEWCCRSCTL, the Kd in assay [1] (setting [22]) came to 0.00995 µM.
Turning to IEEGRTLRVL, the Kd in assay [1] (setting [27]) worked out at 0.0718 µM.
Same read-out and setting: the figure for HEWCCRSCTL is 0.00399 µM.
